4 substances from patent publication US20250269058A1, “GENE THERAPY FOR TREATING NEURODEGENERATIVE DISEASES” (ABRAIN, priority 2021, published 2025) can be followed below.

Data set [1] is described as follows: ThT assay of autoaggregation of Aβ42 WT or variant peptides. It counts as physicochemical. Particulars: 10 μM peptide in PBS, 50 μM ThT, 37° C. How it is done:
HFIP was evaporated overnight in a fume hood and then transferred to SpeedVac for 1 hour to remove any remaining traces of HFIP, Tubes containing the peptide film were kept over desiccant at −20° C. until used. Immediately prior to experimental use, lyophilized peptides were dissolved in 0.1% NH4OH to a final concentration of 100 μM and sonicated for 10 minutes in a bath sonicator.
ThT fluorescence was measured using a Biotek Synergy H1 reader at an excitation wavelength of 440 nm and emission wavelength of 485 nm. Reactions were incubated at 37° C. and then shaken for 5 seconds every 10 minutes prior to reading the fluorescence.

Data set [2] addresses T1, human Tau 40 WT (Homo sapiens, UniProt P10636).
T1 construct: His tag (inferred from Ni-NTA purification and pQE80 vector); made in house; host or cells: E. coli BL21-DE3
In words: ThT assay, inhibition of human Tau 40 WT autoaggregation by Tau inhibitor. It counts as biochemical. Particulars: 15 μM Tau protein and 30 μM inhibitor (1:2). How it is done: (§1) All inhibitor peptides were purchased from Biomatik. Dissolution was performed at a working concentration of 1.2 mM in deionized water, with a minimum purity of 95% or higher. Human Tau 40 WT was expressed by the pQE80 vector in BL21-DE3 E. coli cells grown to OD600=0.8 in LB medium. Cells were induced with 1 mM IPTG for 3 hours at 37° C. and further incubated for 4 hours, and then cultured E. coli cells were harvested by centrifugation at 5,000 rpm for 20 minutes. The obtained E. coli was resuspended in a dissolution buffer (50 mM NaH2PO4, NaCl 250 mM, 10 mM imidazole pH 8.0) and then dissolved by sonication. Cell lysates were purified by centrifugation at 15,000 rpm for 15 minutes, and 1 ml of 50% Ni-NTA slurry was added to 4 ml of the supernatant and shaken at 4° C. for 60 minutes (200 rpm on a rotator) to mix gently. […]
(§2) Autoaggregation of human Tau 40 WT or Tau inhibitor was tested using 15 μM of human Tau 40 WT protein or 30 μM of inhibitor (SEQ ID NOs: 22 or 32), 8 μM heparin, and 50 μM ThT. ThT fluorescence was measured using a Biotek Synergy H1 reader at an excitation wavelength of 440 nm and emission wavelength of 485 nm. The reactions were incubated at 37° C., and measured every 15 minutes for 70 hours with orbital vibration of 425 cpm continuously. […]

The nature of data set [3]: ThT assay of autoaggregation of human Tau 40 WT or Tau inhibitor. The class given is physicochemical. The procedure: as §1, §2

T1 sequence (P10636 1-441 isoform P10636-8): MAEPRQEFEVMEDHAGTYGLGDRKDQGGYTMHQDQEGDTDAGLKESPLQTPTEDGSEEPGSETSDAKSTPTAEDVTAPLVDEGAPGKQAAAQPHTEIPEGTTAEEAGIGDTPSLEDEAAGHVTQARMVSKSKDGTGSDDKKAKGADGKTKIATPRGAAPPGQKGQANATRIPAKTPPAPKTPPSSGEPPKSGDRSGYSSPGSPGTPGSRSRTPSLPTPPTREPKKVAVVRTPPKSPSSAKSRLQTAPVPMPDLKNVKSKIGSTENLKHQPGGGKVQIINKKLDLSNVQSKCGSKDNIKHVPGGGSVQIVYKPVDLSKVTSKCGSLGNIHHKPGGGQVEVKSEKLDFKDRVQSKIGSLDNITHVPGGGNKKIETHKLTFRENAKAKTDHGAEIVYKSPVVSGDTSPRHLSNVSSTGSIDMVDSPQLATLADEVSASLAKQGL

For the substance “Aβ42 WT: wild-type Aβ42 peptide, synthetic, purchased from Biomatik”, the “autoaggregation in ThT assay” value in data set [1] is “generated aggregation”. As to “MDVQMINKKLK (Tau inhibitor) [SEQ ID NO: 22]”, the “inhibition of Tau WT aggregation (competition assay)” value in data set [2] is reported as “completely attenuated the aggregation of Tau WT”.

As for “TVIVITLVMLKDVQMINKKLK (Tau inhibitor) [SEQ ID NO: 32]”, the “inhibition of Tau WT aggregation (competition assay)” value in data set [2] is on record as “completely attenuated the aggregation of Tau WT”. On to “Tau WT: Human Tau 40 WT protein expressed by the pQE80 vector in E. coli”, for which the “time to peak of ThT binding” value in data set [3] (1 nM of seed added to Tau WT) was not above 20 h; in data set [3] (15 μM human Tau 40 WT, 8 μM heparin, 50 μM ThT), not above 70 h.
